Assay results reported in article PMC11594477.

Target: human Flag-tagged RAC2 T108A mutant (human), P15153
Assay: co-IP; Caki-1 cells transfected with Flag-tagged WT, S86A or T108A RAC2; interaction with NEDD4L quantified relative to WT
Conditions: remark: other sources report otherwise

interaction, percent of the WT level (% of the WT level): 20
B1: Neural precursor cell expressed developmentally down-regulated 4-like (NEDD4L), endogenous, Q96PU5-5 1-955 (enzyme)
chain: MATGLGEPVYGLSEDEGESRILRVKVVSGIDLAKKDIFGASDPYVKLSLYVADENRELALVQTKTIKKTLNPKWNEEFYFRVNPSNHRLLFEVFDENRLTRDDFLGQVDVPLSHLPTEDPTMERPYTFKDFLLRPRSHKSRVKGFLRLKMAYMPKNGGQDEENSDQRDDMEHGWEVVDSNDSASQHQEELPPPPLPPGWEEKVDNLGRTYYVNHNNRTTQWHRPSLMDVSSESDNNIRQINQEAAHRRFRSRRHISEDLEPEPSEGGDVPEPWETISEEVNIAGDSLGLALPPPPASPGSRTSPQELSEELSRRLQITPDSNGEQFSSLIQREPSSRLRSCSVTDAVAEQGHLPPPSVAYVHTTPGLPSGWEERKDAKGRTYYVNHNNRTTTWTRPIMQLAEDGASGSATNSNNHLIEPQIRRPRSLSSPTVTLSAPLEGAKDSPVRRAVKDTLSNPQSPQPSPYNSPKPQHKVTQSFLPPGWEMRIAPNGRPFFIDHNTKTTTWEDPRLKFPVHMRSKTSLNPNDLGPLPPGWEERIHLDGRTFYIDHNSKITQWEDPRLQNPAITGPAVPYSREFKQKYDYFRKKLKKPADIPNRFEMKLHRNNIFEESYRRIMSVKRPDVLKARLWIEFESEKGLDYGGVAREWFFLLSKEMFNPYYGLFEYSATDNYTLQINPNSGLCNEDHLSYFTFIGRVAGLAVFHGKLLDGFFIRPFYKMMLGKQITLNDMESVDSEYYNSLKWILENDPTELDLMFCIDEENFGQTYQVDLKPNGSEIMVTNENKREYIDLVIQWRFVNRVQKQMNAFLEGFTELLPIDLIKIFDENELELLMCGLGDVDVNDWRQHSIYKNGYCPNHPVIQWFWKAVLLMDAEKRIRLLQFVTGTSRVPMNGFAELYGSNGPQLFTIEQWGSPEKLPRAHTCFNRLDLPPYETFEDLREKLLMAVENAQGFEGVD
